This assay has as its target T1, bovine serum albumin (bovine, UniProt P02769 25-607).
T1 construct: Negative control surface; also called BSA
Kind of assay: BioFlux microfluidic adhesion, RhB-labeled “VBP+CBP”-decorated liposomes flowed at 25 dyn/cm^2 over albumin-coated channels, fluorescence microscopy. How it is done: The “VBP+CBP”-decorated nanoparticles and control (undecorated) nano-particles were evaluated for their specific adhesion capabilities utilizing a BioFlux 200 microfluidic system (Fluxion Biosciences) and observed under inverted fluorescence microscope imaging. This system allows simulation of a physiologically relevant vascular flow environment. Here, the microfluidic channels were incubated with either 0.3 wt % bovine serum albumin (BSA) in water or 40 μg/mL equine type 1 fibrillar collagen and 10 μg/mL vWF in 20 μM acetic acid for 1.5 h. Unbound albumin and collagen were removed with a saline rinse. […] Fluorescence microscopy imaging of particle Rhodamine B label was used to quantify the extent of particle adhesion to the coated surfaces. Thrombin release kinetics was measured by sealing the column-separated t-TLNPs in a MWCO 100 K dialysis bag, placing the bag in a TBS reservoir, and removing aliquots from the reservoir at predefined time points over the course of 6 h (fresh TBS was added back to the reservoir appropriately after each aliquot removal). […] Thrombin concentrations from the collected aliquots were evaluated using a human thrombin ELISA and plotted over time to determine the release profile. […]

The results in this text go back to US20250134969A1 (CASE WESTERN RESERVE UNIVERSITY, published 2025).

Ends that are not written are not given here.

T1 sequence (P02769 25-607 limits assumed): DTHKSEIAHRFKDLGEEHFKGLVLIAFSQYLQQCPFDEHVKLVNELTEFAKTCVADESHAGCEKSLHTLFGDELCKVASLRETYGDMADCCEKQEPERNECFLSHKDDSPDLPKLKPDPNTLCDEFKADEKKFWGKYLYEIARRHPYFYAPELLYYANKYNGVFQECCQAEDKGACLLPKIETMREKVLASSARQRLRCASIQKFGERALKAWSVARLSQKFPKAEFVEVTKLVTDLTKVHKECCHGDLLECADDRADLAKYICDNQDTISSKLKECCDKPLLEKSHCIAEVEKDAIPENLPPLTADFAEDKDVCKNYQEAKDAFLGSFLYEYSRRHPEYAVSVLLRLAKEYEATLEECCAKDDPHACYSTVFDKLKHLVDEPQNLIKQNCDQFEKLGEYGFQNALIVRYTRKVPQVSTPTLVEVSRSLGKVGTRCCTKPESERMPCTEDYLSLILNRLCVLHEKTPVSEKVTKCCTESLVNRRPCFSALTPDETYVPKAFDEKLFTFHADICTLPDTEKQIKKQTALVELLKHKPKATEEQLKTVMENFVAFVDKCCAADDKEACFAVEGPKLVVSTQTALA

B1: vWF-binding peptide (VBP), cysteinylated, CTRYLRIHPQSWVHQI, conjugated to DSPE-PEG2K and displayed on liposomal nanoparticles (peptide)
peptide: C(DSPE‑PEG2000‑maleimide)TRYLRIHPQSWVHQI
notes: In every adhesion assay the peptide stood on the surface of liposomes (1.25 mol % DSPE-PEG2K-VBP) together with CBP (1.25 mol %); also called DSPE-PEG2K-VBP
B1: the binding result is “no binding”.
